Test results as given in patent US20230099646A1 (published 2023).

Target: T1, cynomolgus monkey CD19 (cCD19) (cynomolgus monkey)
T1 construct: Expressed on transiently transfected 293 cells
T1 chain: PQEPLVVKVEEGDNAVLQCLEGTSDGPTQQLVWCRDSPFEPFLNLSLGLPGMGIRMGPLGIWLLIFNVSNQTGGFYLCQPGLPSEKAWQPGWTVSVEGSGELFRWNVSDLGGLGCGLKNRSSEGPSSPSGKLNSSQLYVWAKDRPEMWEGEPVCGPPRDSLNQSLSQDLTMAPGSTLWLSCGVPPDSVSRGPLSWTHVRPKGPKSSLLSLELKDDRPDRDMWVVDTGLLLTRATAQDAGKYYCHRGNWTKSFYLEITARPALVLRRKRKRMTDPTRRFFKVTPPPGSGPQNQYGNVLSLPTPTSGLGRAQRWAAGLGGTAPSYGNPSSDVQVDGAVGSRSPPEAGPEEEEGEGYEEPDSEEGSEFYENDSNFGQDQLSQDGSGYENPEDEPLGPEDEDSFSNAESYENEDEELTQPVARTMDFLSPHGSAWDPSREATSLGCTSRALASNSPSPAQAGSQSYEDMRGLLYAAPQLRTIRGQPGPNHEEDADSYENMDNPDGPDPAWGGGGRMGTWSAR
Test: flow cytometry on transfected 293 cells
Method: In brief, first, the expression of CD19 protein was identified.
Binding to GFP-positive cells was analyzed on the basis of mean fluorescence intensity (MFI).

binding result: no binding
B1: CD19_12.18 antibody (scFv, V domains shown)
VH: AVTLDESGGGLQTPGGALSLVCKASGFTFSSYDMGWVRQAPGKGLEFVAGIDDDGRYTSYGSAVDGRATISRDNGQSTVRLQLNNLRAEDTATYYCTRGNAGWIDAWGHGTEVIVSS
VL: LTQPSSVSANPGETVKITCSGGYSSYYGWYQQKSPGSAPVTLIYESNKRPSDIPSRFSGSASGSTATLTITGVQVEDEAVYYCGGWDSTHAGIFGAGTTLTVLG
notes: Chicken-derived antibody, tested as an Fc fusion (Anti-CD19 scFv-Fc) made in FreeStyle 293F cells; also called CD19_1218-Fc; Anti-CD19 scFv-Fc
